Reference: PMC10372164 (Molecular Therapy. Nucleic Acids, 2023)

Biological target: the molecule itself
Assay: SEC

B1: human ornithine transcarbamylase labeled with 3x FLAG at the C-terminus (enzyme, UniProt P00480 33-354, looked up)
chain: NKVQLKGRDLLTLKNFTGEEIKYMLWLSADLKFRIKQKGEYLPLLQGKSLGMIFEKRSTRTRLSTETGFALLGGHPCFLTTQDIHLGVNESLTDTARVLSSMADAVLARVYKQSDLDTLAKEASIPIINGLSDLYHPIQILADYLTLQEHYSSLKGLTLSWIGDGNNILHSIMMSAAKFGMHLQAATPKGYEPDASVTKLAEQYAKENGTKLLLTNDPLEAAHGGNVLITDTWISMGQEEEKKKRLQAFQGYQVTMKTAKVAASDWTFLHCLPRKPEEVDDEVFYSPRSLVFPEAENRKWTIMAVMVSLLTDYSPQLQKPKF
With B1 the “stoichiometry N” value was 3.
